The source of these data is paper PMC4366279 (PLoS ONE, 2015).

B1: T. brucei RNA Editing Ligase 1 (TbREL1), full length wild type [modified: [35S]-methionine labelled; [35S]-methionine labelled] [Trypanosoma brucei] / KREPA2 [modified: [35S]-methionine labelled; [35S]-methionine labelled] [Trypanosoma … (parent complex)
chain 1: YMPLPNDQSDFSPYIEIDLPSESRIQSLHKSGLAAQEWVACEKVHGTNFGIYLINQGDHEVVRFAKRSGIMDPNENFFGYHILIDEFTAQIRILNDLLKQKYGLSRVGRLVLNGELFGAKYKHPLVPKSEKWCTLPNGKKFPIAGVQIQREPFPQYSPELHFFAFDIKYSVSGAEEDFVLLGYDEFVEFSSKVPNLLYARALVRGTLDECLAFDVENFMTPLPALLGLGNYPLEGNLAEGVVIRHVRRGDPAVEKHNVSTIIKLRCSSFMELKHPGKQKELKETFIDTVRSGALRRVRGNVTVISDSMLPQVEAAANDLLLNNVSDGRLSNVLSKIGREPLLSGEVSQVDVVLMLAKDALKDFLKEVDSLVLNTTLAFRKLLITNVYFESKRLVEQKWKELMQEEAAAQSEAIPPLSPAAPTKGE
chain 2: MYRRFFRSAAVKHLGTTSAQCLMRATKYPCGAMCRNASSCHPQTLGYQQRFQSTTDKKFHCSVCKKPFRLEMAAKLHLQQAHGGDGSVEAGPGPGVEASSVNVVSTPVPSPISPVERTFVDEEERRPRRMRPTPKPLHQPDRDIPAAAMEEMLGVWDKIGLNRLEGNFVHSTMVMKVFAAPPDVSEIPLYEHVAPEGENPFDSLDHMTTGTVDATYVGHDAFAEVDLVDPFVAAPDQTLNPFRAGKVRNPFTRISPTQREVVKPLQPPQPKEEPLKAPVTPFGQLPMFGQTREPSASFAAAAVSVQAAANPNEVSSPFAAAVSSSPFVGQVASPFAPAQDVAGSPFEASPCAASSPFVTAGGQETSPFAAPSTPASFGQGSLFPPMGTGAPGFTAITETEQRQQELEHGCPTCGKKFSTFEGAAMHSKSKHGIVLESKKVKDRLNRKGVPDLPAYVPSPVDLSSTSPFGTRSAIGASWAETELIPHAQCVSNITIVGRVLDVSQASENVSHVTVFVEGERSGEEETLTLCCFGEVSQKIRGTLKRNATIFASGTLRLHPVYEASNNKYYVSPVVHVSMPTGTLAVIT

The variants in the assay derive from B1. Nature of the assay: co-precipitation (pull-down) with His-tag isolation beads, [35S]-methionine labeled proteins; parent: 100; read off a plot.
Turning to chain 1 S259A, the percent of parent is ~100 % of WT.
To chain 1 E366A belongs ~72 % of WT; to chain 1 T220A, ~84 % of WT.
Consider chain 1 K380A, for which the percent of parent is ~84 % of WT.
For the variant chain 1 E411A, the percent of parent is ~94 % of WT.
To chain 1 Y231A belongs ~75 % of WT; to chain 1 Q56A, ~110 % of WT.
With chain 1 S170A, the percent of parent was ~66 % of WT.
Turning to chain 1 W398A, the percent of parent was ~66 % of WT.
To chain 1 E37A belongs ~67 % of WT; to chain 1 K122A, ~100 % of WT; to chain 1 K399A, ~60 % of WT.
To chain 1 E75A belongs ~74 % of WT; to chain 1 K361A, ~67 % of WT.
To chain 1 K335A belongs ~57 % of WT.
Turning to chain 1 H161A, the percent of parent was ~94 % of WT.
As to chain 1 K391A, the percent of parent is ~88 % of WT.
